Measured values: paper PMC9963277 (Proceedings of the National Academy of Sciences of the …, 2023)

B1: E. coli ClpX (containing a neutral K408E mutation) (enzyme)
chain: not shown

Columns and labels:
[1] = biological target: B1; assay: cryo-EM structure
[2] = biological target: the molecule itself; assay: cryo-EM structure

Row | Binder | binding result [1] | binding result [2]
1 | E. coli SspB (natural protein) MDLSQLTPRRPYLLRAFYEWLLDNQLTPHLVVDVTLPGVQVPMEYARDGQIVLNIAPRAVGNLELANDEVRFNARFGGIPRQVSVPLAAVLAIYARENGAGTMFEPEAAYDEDTSIMNDEEASADNETVMSVIDGDKPDHDDDTHPDDEPPQPPRGGRPALRVVK | binds | –
2 | B1 | – | binds
3 | E. coli ClpP (enzyme) not shown | binds | binds
